Target: fusion protein containing the A3B3 domain of CEA (UniProt P06731)
Assay: competitive ELISA against HRP-conjugated hMN-14 IgG (1 nM)

Chain of fusion protein containing the A3B3 domain of CEA (P06731 499-676): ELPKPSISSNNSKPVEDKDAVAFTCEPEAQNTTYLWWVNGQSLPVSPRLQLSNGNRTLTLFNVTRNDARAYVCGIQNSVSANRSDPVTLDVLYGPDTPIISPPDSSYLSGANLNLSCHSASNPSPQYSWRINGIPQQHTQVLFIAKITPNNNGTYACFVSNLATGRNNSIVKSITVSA

**Q.** With TF2 (bispecific antibody) as the substance, how does the avidity, fold over TF1 read?
**A.** The avidity, fold over TF1 was 2 fold.

— patent US20110020273A1
